Measurements published in patent publication US20140148397A1 (University of California, published 2014).
Ends that are not written are not given here.

B1: AgRP(83-120) (peptide)
peptide: SSRRCVRLHESCLGQQVPCCDPAATCYCRFFNAFCYCR-NH2
modifications: disulfide (positions not given here); not fully specified; also: oxidatively folded, disulfide pairing not given here
B2: AgRP(87-120) (peptide)
peptide: Ac-CVRLHESCLGQQVPCCDPAATCYCRFFNAFCYCR-NH2
modifications: disulfide (positions not given here); not fully specified; also: oxidatively folded, disulfide pairing not given here

Tests used:
[1] = target: hMC3R (human, UniProt P41968 1-323); experiment: cell-based or functional assay
[2] = target: hMC4R (human, UniProt P32245 1-332); experiment: cell-based or functional assay
Chain of hMC4R (P32245 whole entry): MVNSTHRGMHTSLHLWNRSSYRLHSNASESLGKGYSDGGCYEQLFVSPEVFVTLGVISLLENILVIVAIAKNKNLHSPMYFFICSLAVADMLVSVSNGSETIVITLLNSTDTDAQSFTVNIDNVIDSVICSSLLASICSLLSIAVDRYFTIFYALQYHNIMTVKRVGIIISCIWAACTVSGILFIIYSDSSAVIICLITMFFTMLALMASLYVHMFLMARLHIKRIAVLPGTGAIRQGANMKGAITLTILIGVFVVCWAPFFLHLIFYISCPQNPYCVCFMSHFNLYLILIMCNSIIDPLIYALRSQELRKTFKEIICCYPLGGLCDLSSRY

Chain of hMC3R (P41968 whole entry): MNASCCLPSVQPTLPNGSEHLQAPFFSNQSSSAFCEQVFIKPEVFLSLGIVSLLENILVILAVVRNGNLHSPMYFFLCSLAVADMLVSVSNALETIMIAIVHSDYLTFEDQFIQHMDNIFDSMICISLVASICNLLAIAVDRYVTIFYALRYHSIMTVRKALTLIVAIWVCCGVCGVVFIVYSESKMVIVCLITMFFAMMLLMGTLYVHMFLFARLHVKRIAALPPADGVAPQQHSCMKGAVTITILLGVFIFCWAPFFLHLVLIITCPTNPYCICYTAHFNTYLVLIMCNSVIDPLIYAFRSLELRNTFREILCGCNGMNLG

Binder	EC50 (nM), NDP-MSH stimulated cAMP production in the presence of 0.10 µM AgRP protein [1] [nM]	EC50 (nM), NDP-MSH stimulated cAMP production in the presence of 0.10 µM AgRP protein [2] [nM]
SSRRCVRLHESCLGQQVPCCDPCATCYCRFFNAFCYCRQLGTAMNPCSQT-NH2 (disulfide (positions not given here)) [AgRP-2Q]	9.22	6.66
KKRRCVRLHESCLGQQVPCCDPCATCYCRFFNAFCYCRKLKTKMNPCSRT-NH2 (disulfide (positions not given here)) [AgRP-4K]	2.66	1.72
SSRRCVRLHESCLGQQVPCCDPCATCYCRFFNAFCYCRKLKTKMNPCSRT-NH2 (disulfide (positions not given here)) [AgRP-2K]	16.1	4.54
SSQQCVRLHESCLGQQVPCCDPCATCYCRFFNAFCYCRQLGTAMNPCSQT-NH2 (disulfide (positions not given here)) [AgRP-4Q]	1.62	1.8
B1	2.96	4.92
B2	5.5	
